Assay [1] has as its target BamA, as the subunit of WT BAM (Escherichia coli K-12). As to the kind of experiment: cryo-EM structure; purified BAM (WT or BAM-LL) mixed with Fab1 in DDM micelles, pH 8.0, 150 mM NaCl; WT BAM with a 2-fold molar excess of Fab1, complex isolated on Superdex 200; BAM-LL and Fab1 mixed 1:1. The note with it: both partners purified.
The target in assay [2] is WT BAM complex (BamABCDE-His6) (Escherichia coli K-12). The description is as above. The note with it: both partners purified.

B1: Fab1, anti-BamA monoclonal antibody Fab fragment (Fab, V domains shown)
VH: EVQLVESGGGLVQPGRSLKLSCVASRFTFSNYGMNWIRQTPGKGLEWVAYIGSTSSHIYYAETVKGRFTISRDNAKNTLYLQMTGLRSEDTALYYCVGHVRKLGAFFDYWGQGAMVTVSS
VL: DIQMTQSPASLSASLGETVTIECRASEDIHSRLAWYQQKPGKSPQLLIYNANSLHTGVPSRFSGSGSGTQFSLKINSLQSEDVASYFCLQYYNYPPYTFGAGAKLELR
notes: heavy chain of Fab1 in the crystal structure deposited here (PDB 7BM5); light chain of Fab1 in the crystal structure deposited here (PDB 7BM5); also called bactericidal Fab fragment; Fab of MAB1; source: E. coli, purified (Protein G, SP Sepharose, Superdex 75)
For B1, the binding result in assay [1] and in assay [2] was “binds” each time.
